# Experimental data published in US9029105B2, “Microorganism producing L-methionine precursor and method of producing L-methionine and organic acid from the L-methionine precursor” (CJ Cheiljedang Corporation, priority 2006, dated 2015).
# B1: Escherichia Coli K12 MetB: cystathionine gamma synthase derived from E. coli, cell extract enzyme solution (protein, UniProt P00935 1-386, looked up)
# Cystathionine gamma-synthase: MTRKQATIAVRSGLNDDEQYGCVVPPIHLSSTYNFTGFNEPRAHDYSRRGNPTRDVVQRALAELEGGAGAVLTNTGMSAIHLVTTVFLKPGDLLVAPHDCYGGSYRLFDSLAKRGCYRVLFVDQGDEQALRAALAEKPKLVLVESPSNPLLRVVDIAKICHLAREVGAVSVVDNTFLSPALQNPLALGADLVLHSCTKYLNGHSDVVAGVVIAKDPDVVTELAWWANNIGVTGGAFDSYLLLRGLRTLVPRMELAQRNAQAIVKYLQTQPLVKKLYHPSLPENQGHEIAARQQKGFGAMLSFELDGDEQTLRRFLGGLSLFTLAESLGGVESLISHAATMTHAGMAPEARAAAGISETLLRISTGIEDGEDLIADLENGFRAANKG
# B2: Leptospira meyeri MetY: O-acetylhomoserine sulfhydrylase derived from Leptospira meyeri (protein, UniProt P94890 1-442, looked up)
# O-acetyl-L-homoserine …: MVGPSGESMPRNFKPETIALHGGQEPDPTTTSRAVPLYQTTSYVFKDTDHAARLFGLQEFGNIYTRLMNPTTDVLEKRVAALEGGVAALATASGQSAEMLALLNIVEAGQEIVASSSLYGGTYNLLHYTFPKLGIKVHFVDQSDPENFRKASNDKTRAFYAETLGNPKLDTLDIAAVSKVAKEVGVPLVIDNTMPSPYLVNPLKHGADIVVHSLTKFLGGHGTSIGGIIIDGGSFNWGNGKFKNFTEPDPSYHGLKFWEVFGKFEPFGGVNIAFILKARVQGLRDLGPAISPFNAWQILQGVETLPLRMERHSGNALKVAEFLQKHPKIEWVNYPGLSTDKNYATAKKYHERGLFGAIVGFEIKGGVEKAKKFIDGLELFSLLANIGDAKSLAIHPASTTHQQLTGPEQISAGVTPGFVRLSVGLENIDDILVDLEEALKNI
# B3: Pseudomonas aurogenosa MetZ: O-succinylhomoserine sulfhydrylase derived from Pseudomonas aeruginosa, cell extract enzyme solution (protein, UniProt P55218 1-403, looked up)
# O-succinylhomoserine …: MTQDWDAGRLDSDLEGAAFDTLAVRAGQRRTPEGEHGEALFTTSSYVFRTAADAAARFAGEVPGNVYSRYTNPTVRTFEERIAALEGAEQAVATASGMSAILALVMSLCSSGDHVLVSRSVFGSTISLFDKYFKRFGIQVDYPPLSDLAAWEAACKPNTKLFFVESPSNPLAELVDIAALAEIAHAKGALLAVDNCFCTPALQQPLKLGADVVIHSATKYIDGQGRGMGGVVAGRGEQMKEVVGFLRTAGPTLSPFNAWLFLKGLETLRIRMQAHSASALALAEWLERQPGIERVYYAGLPSHPQHELARRQQSGFGAVVSFDVKGGRDAAWRFIDATRMVSITTNLGDTKTTIAHPATTSHGRLSPEDRARAGIGDSLIRVAVGLEDLDDLKADMARGLAAL
# modifications: cell extract
# notes: O-succinylhomoserine sulfhydrylase derived from Pseudomonas aeruginosa, cell extract enzyme solution
# Tests used:
# Assay type in all cases: biochemical
# [1] = HPLC of final methionine and succinic acid after one-hour reaction with O-succinylhomoserine; conditions: from O-succinylhomoserine
# Experimental: (§1) First, O-succinylhomoserine (Sigma, USA) was dissolved in 0.1 M potassium phosphate buffer (pH 7.5) with the concentration of 3 mM. Pyridoxal 5′-phosphate (Sigma, USA) used as a coenzyme was added into the reaction solution with the final concentration of 10 μM. Methylmercaptan (Methylmercaptan, Tokyo Kasei Organic Chemicals, Japan) used as another substrate was added into the reaction solution with the final concentration of 2 mM. 1 ml of the reaction solution was placed in 37° C., to which 10 μL of each enzyme solution (protein conc.: 5 mg/ml) was added. 100 μL of the reaction solution was collected every 5-10 minutes and added into 900 μL of 4 mg/ml DTNB (Sigma, USA) solution. OD415 was measured to confirm the on-going of the reaction.
# Upon completion of one-hour reaction, HPLC was performed to confirm the final productions of methionine and succinic acid.
# [2] = Conversion reaction of O-acetylhomoserine with methylmercaptan by enzyme solutions (DTNB, OD415); conditions: OAHS as a substrate
# Experimental: as §1
# DTNB was reacted with SH group of methylmercaptan remaining in the reaction solution and thus synthesized a yellow substance. Thus, whether the reaction was going on or not was checked by observing the disappearance of yellow color of the reaction solution resulted from the conversion reaction of methylmercaptan into methionine.
# Experiment was performed with O-acetylhomoserine by the same manner as described in Example <3-20>. O-acetylhomoserine was purified from the supernatant of fermented solution. The same reaction solutions and enzyme solutions as used for the experiment with O-succinylhomoserine were used for the reaction. […]
# [3] = HPLC of final methionine and acetic acid after one-hour reaction with O-acetylhomoserine; conditions: from O-acetylhomoserine
# Experimental: as §1
# (§2) Experiment was performed with O-acetylhomoserine by the same manner as described in Example <3-20>. O-acetylhomoserine was purified from the supernatant of fermented solution. The same reaction solutions and enzyme solutions as used for the experiment with O-succinylhomoserine were used for the reaction. […] Upon completion of one-hour reaction, HPLC was performed to confirm the final productions of methionine and […].
# [4] = Feed-back inhibition of converting enzyme by methionine, OAHS as substrate; conditions: presence of methionine
# Experimental: as §2
# Feed-back inhibition in the presence or absence of methionine was identified by the same manner as described in Examples <3-20> and <3-21>. The reaction solutions were prepared by the same manner above and the same reaction was performed by adding or not adding 5 g/L of methionine in the each reaction solution. The reaction speed in the reaction solution without methionine was regarded as 100%, based on which the remaining activity in the presence of methionine was calculated as %.
Molecule,amount of Methionine [1],amount of Succinic acid [1],"enzyme activity with O-acetylhomoserine (FIG. 6), in words [2]",amount of Acetic acid [3],amount of Methionine [3],"inhibition of enzyme activity by methionine, in words [4]"
B1,0.14 g/L,0.1 g/L,,,,
B2,,,high enzyme activities,0.05 g/L,0.15 g/L,inhibited by methionine
B3,0.22 g/L,0.17 g/L,,,,
